Measurements from the DeepSol protein solubility set.

Assay: soluble on expression in E. coli; label from the status in PepcDB or PDB records

| Sequence | soluble on expression in E. coli |
| --- | --- |
| MDPIKQEISEYFKDWMELYKKNAIDEMTYKGYEQTLKYLKTYMPNVLISEITASSYQRALNKFAETHAKASTKGFHTRVRASIQPLIEEGRLQKDFTTRAVVKGLEHHHHHH | soluble |
| MDPSVTLWQFLLQLLREQGNGHIISWTSRDGGEFKLVDAEEVARLWGLRKNKTNMNYDKLSRALRYYYDKNIIRKVSGQKFVYKFVSYPEVAGC | soluble |
| MDQALYSLETRFEQFQRYEQIFGFLFDLKKLQSASDDSLMASCTNLKDALTHGTHSDILASDLFYELKILREALPKEVRRPIEVLDFLQKVEGCYPNSWIAYQVLLTIPVSVASAERSFSKLKLIKSYLRSSMSQERLSDLAILSIERALVREVDFERLANDFVGKKGRRITL | soluble |
| MDRLRFDHRVITENGNKQPLVMVINLSSISMAMMSYDFNSKPLLIFWETTKACGLKCEHCRASAILDALPGEMTFDQSINFLSHIKEFGKPYPIVILTGGDMLRKHRIWDIMDYLRSQEIPFSVSPAVTDLLTHEAILKFKEFGVSSVSISLDGMREVHEKVRGVAGVYDDTVKAIEDLISTGISMQINTVVMRSTVHDLPHVLKLIIDKGVKVWEVFFLIKTGRGIDREDLSPEEYENVNKFLLFATGYGIRIRTVESPIYRRITMQYGKNGLIKGGRLFDELREETVSLIGNPSKEYASSVIPTRDGFGIIFVGHDGEVYPSGFLPYSVGNVKDRSIVDIYRNSDLLNSIRNPDNLHGKCGLCEYRKVCGGSRARAFAYTGDPFGTDPSCIYEPSAVPE | not soluble |
| MDRPLLIFSGQSNRPLAQAIAEALGLPLGKSTTLRFANDNLFVRYEESLREGDVFIVQSFVPPVQDHLMELLMMVDAAKGASAARVTAVIPYFSYARSDKKDAPRISITARLIADLLQTAGADRVLTMTLHSPQVHGFFKIPVDHLSAEPVIANYFATRVDLENAVVVAPDAGDLKRASALARRLGLPLAFIDKERVSDTEVRVRMLVGEVEGKTALIVDDEISTAGSLVEAVEALMQAGAKEVYAAATHGVYVGPALDRIAKSPVKEVAATDTCPPKEGPKLRTLTVAPLFAEAIWRIHRGESVSSLFT | soluble |
| MDRRTFLKSASMKGTAIVTASAVGTEMLHAAESIGASDVASGKRNAPKAKRLPEDLQELVKDSSLLRKPDNLTVACYTFPNYHASALHDKIYGPGWTEYNLVRSARPWFQGHAQPRGPLLGEMDESKPGTWEKYNELCKQSGIDVLIWDWYWYNNEPCLHEALENGFLRASNRNDVKFACMWTNHPWYVLYPTLLPNGYKAYPPSFAPADGSLKECWQSLSYIISRYCHLENYWRIDDKPVVCIWDPNRLEKNIGVDGVKQLFAELTEFARKLGHKGLHFHSSGFYSPNSKEVGYNTAGSYNPFTWVADNYQPKNIELPDYGVAAADVAFKLWPKHHDDFAIPYLPSLSPGWDSTPRYIPPVSRPDQPNRDAWPNCVILDNENPASFKALVQSAFAYLNKHKDVPPILTIACFNEWTEGHYLLPDNRFGYGMLDALAEAVGKSDNHQIHGFFLEHHHHHH | not soluble |
| MDRVALKPFRRIAVILLAGAVIATSTSCSRDERKKEEEKHLESMMSILVQVQKNLGRIRQKEAVVVRLSSDVEGRKPKSAEQIGREINTNIRFIDSTLSASKNLVATLEKQNHESQYRIAALDRMTGQLKGELDKKELELGAMKREIAKLNRQIARLTNTVDVMDEAISDQEDQMVKAYYVVGTVDQLVSKGILVPPGPFSRFFGMRPVLANDFDLRPFRQVDITETKDIYFDKPVSRLHVITPHTKGSYELVGGKTSSLLLIRNEAEFWKKSRCLVIVVE | not soluble |
| MDSEKIKIFTRNYKGSLIMSKRSPKSVSEKLEIVLLRLEEGKSLSWLTRNQGISKDTLSNWVRKYKEAGVDGLEESRQWKKYSKELKEQAVSDYLNGLGSLKDLTKKYGISDPYVLRSWIKSYTSGKELKATSKGMRRMKQGRKTTFEERIEIVNFTLAHEKDYQGAVEKYGVSYQQIYSWVRKFEKDGSNGLLDRRGKGLTSKPNLTPEEELRLKIKQQEERIKYLEMENGLLKKLEEIKRRNRRLEHHHHHH | soluble |
| MDSGDFSPMQSNFSLGFMSFEDIPEDARTTEMIDKIVFEEDKEYDHTQDSFRYGRVTTGVSYNLVTGKIPKTVFEQVKAKDDENDNVEFEMEHLEDKETAHKTQTFDELYESQMPKYFDYQSNFSDVNGIWTLLFDQNHYEKMSTFELQAAICAALNSKHFMMICVGIDAFNAVTGVEMSAKDRVVFRMALTRAVAGEFQPPLVKVAPKQLTGVSPMKRDISEVTSSIDVLFVPVIGVTDEVENNRFLIVVRVKGT | not soluble |
